# Target: mouse monoclonal PSA antibody
# Test: SPR, BIAcore 3000, antibody immobilised on CM5 chip
row,Kd,Substance
1,18.2 nM,PSA-GOx complex (from UniProt P07288 25-261; P13006 23-605)
2,0.701 nM,Prostate specific antigen (PSA) (from UniProt P07288 25-261) (enzyme)

# — patent publication US20090061451A1
